# Key:
# FcγRI (human) = FcγRI (human) (UniProt P12314); assay: SPR (BIAcore T100, 25 °C); FcγRI captured by pentaHis antibody, antibody as analyte
# FcγRIIA-R131 (human) = FcγRIIA-R131 (human) (UniProt P12318); assay: SPR (BIAcore T100, 25 °C); antibody immobilised, receptor as analyte, steady state fit
# FcγRIIIA-V158 (human) = FcγRIIIA-V158 (human) (UniProt P08637); assay: as above
# Sequence of FcγRIIIA-V158 (human) (P08637 17-208 F176V limits assumed): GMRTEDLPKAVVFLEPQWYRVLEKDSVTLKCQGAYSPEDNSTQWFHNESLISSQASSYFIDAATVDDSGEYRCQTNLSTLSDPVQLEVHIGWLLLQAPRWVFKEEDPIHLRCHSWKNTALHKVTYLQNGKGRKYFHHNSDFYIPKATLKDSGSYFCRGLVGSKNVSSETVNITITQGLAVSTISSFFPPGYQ
# Sequence of FcγRI (human) (P12314 16-288 limits assumed): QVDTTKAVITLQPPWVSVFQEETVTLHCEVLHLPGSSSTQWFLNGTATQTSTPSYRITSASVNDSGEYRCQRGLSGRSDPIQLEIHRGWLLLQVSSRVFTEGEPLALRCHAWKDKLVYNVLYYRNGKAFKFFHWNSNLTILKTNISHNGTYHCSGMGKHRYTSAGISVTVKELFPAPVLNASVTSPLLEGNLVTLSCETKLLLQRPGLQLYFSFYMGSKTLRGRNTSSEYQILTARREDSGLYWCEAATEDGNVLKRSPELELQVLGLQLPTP
# Sequence of FcγRIIA-R131 (human) (P12318 36-218 H167R limits assumed): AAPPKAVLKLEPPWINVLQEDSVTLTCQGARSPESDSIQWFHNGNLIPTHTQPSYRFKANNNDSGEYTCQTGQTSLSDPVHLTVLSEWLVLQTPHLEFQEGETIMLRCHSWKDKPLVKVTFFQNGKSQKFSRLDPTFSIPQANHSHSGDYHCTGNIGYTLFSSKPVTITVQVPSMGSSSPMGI
# Sequence of IgG4 SPLE (antibody of Tables 1a and 1b, specificity not named) (Fc): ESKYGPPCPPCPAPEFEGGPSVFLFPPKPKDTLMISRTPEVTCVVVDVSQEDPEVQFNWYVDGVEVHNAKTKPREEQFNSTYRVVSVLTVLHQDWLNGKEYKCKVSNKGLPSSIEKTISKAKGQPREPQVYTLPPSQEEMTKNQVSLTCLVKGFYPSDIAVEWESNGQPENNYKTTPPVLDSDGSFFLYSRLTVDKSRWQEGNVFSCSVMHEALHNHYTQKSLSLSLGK
Substance,Kd (FcγRI (human)) [nM],Kd (FcγRIIA-R131 (human)) [nM],Kd (FcγRIIIA-V158 (human)) [nM]
"IgG1 P329A ge (antibody of Table 1a, specificity not named)",8,4400,1800
"IgG1 P329G ge (antibody of Table 1a, specificity not named)",10,,
"IgG4 SPLE (antibody of Tables 1a and 1b, specificity not named)",,10000,

# The remaining lines, values ahead:
Kd (FcγRI (human)) [nM],Kd (FcγRIIA-R131 (human)) [nM],Kd (FcγRIIIA-V158 (human)) [nM],Substance
6,,,"IgG1 P329G (antibody of Tables 1a and 1b, specificity not named)"
5.7,,,anti-CD20 antibody IgG1 P329G

# Reference: patent US20140051834A1, “Incretin Receptor Ligand Polypeptide Fc-Region Fusion Polypeptides And Conjugates With Altered Fc-Effector Function” (Hoffman-La Roche, Inc., priority 2012, published 2014)
